pKd: −log10 of the molar value.

The pKd is the Kd on a negative log10 scale, so that one unit is a factor of ten. As usually defined, the koff is a measure of how fast the partners let go of each other. The kon is the rate constant with which the complex forms.

Test [1] has as its target 30S ribosomal subunit from Sulfolobus solfataricus (Sulfolobus solfataricus). The experiment in a line: burst-length (diffusion) analysis in single-molecule ALEX/smFRET; titration of 30S; percentage of 30S-bound ABCE1 at each concentration; 2 mM AMP-PNP, 73°C, 10 min.
Test [2] shares this target. The experiment in a line: dissociation time course by burst-length analysis in single-molecule ALEX/smFRET; 30 nM labelled ABCE1 with 25 μM AMP-PNP and 12.5 μM 30S, 73°C 10 min; then 630-fold dilution with 2 μM unlabelled ABCE1, dissociation followed at 73°C for 0-10 min; the association rate is estimated from this rate and the KD.
A further test concerns the target T1, ABCE1 (Saccharolobus solfataricus, UniProt Q980K5, K177C/T393C).
T1 construct: gene SSO0287; full length with N-terminal FeS cluster domain, C-terminal His6 tag, pSA4 vector, expressed in E. coli BL21(DE3) pRARE; about 70 kDa
The experiment in a line: malachite green ATPase assay. The format is biochemical. The note with it: site II variant, before and after Cy3B/Atto647N labelling of the protein; 5 mM ATP, 10 mM MgCl2, pH 7.5, 80 °C.

Compound “ABCE1^K177C/T393C (site II variant), labelled with Cy3B and Atto647N (enzyme)” had a pKd in test [1] of 7.70. Moreover, in test [2], the koff was 0.00833 s⁻¹ and the kon is 400000 M⁻¹ s⁻¹.
Turning to `Nc1ncnc2c1ncn2[C@@H]1O[C@H](COP(=O)(O)OP(=O)(O)OP(=O)(O)O)[C@@H](O)[C@H]1O` [ATP], the “malachite green ATPase assay” value on ABCE1 is recorded as “verified by determining the basal ATP hydrolysis, which was similar to the wild type”.

These data come from paper PMC6656783, “ABCE1 Controls Ribosome Recycling by an Asymmetric Dynamic Conformational Equilibrium” (Cell Reports, 2019).
